For this assay, the target named is Francisella tularensis ssp. holarctica macrophage locus protein A (MglA) (F. tularensis ssp. holarctica) (UniProt Q5NFG1). Nature of the assay: cross-linking + SEC.

By stoichiometry N is commonly meant a count of units in the complex or per binding partner. For the substance “Francisella tularensis ssp. holarctica macrophage locus protein A (MglA) (from UniProt Q5NFG1 1-205) (natural protein)”, the stoichiometry N amounted to 2.

The values are drawn from article PMC4488300.
